B1: TIR1 (wild type, epitope-tagged, expressed in Nicotiana) [Arabidopsis] / GST-IAA3 [Arabidopsis] (parent)
chain 1: MQKRIALSFPEEVLEHVFSFIQLDKDRNSVSLVCKSWYEIERWCRRKVFIGNCYAVSPATVIRRFPKVRSVELKGKPHFADFNLVPDGWGGYVYPWIEAMSSSYTWLEEIRLKRMVVTDDCLELIAKSFKNFKVLVLSSCEGFSTDGLAAIAATCRNLKELDLRESDVDDVSGHWLSHFPDTYTSLVSLNISCLASEVSFSALERLVTRCPNLKSLKLNRAVPLEKLATLLQRAPQLEELGTGGYTAEVRPDVYSGLSVALSGCKELRCLSGFWDAVPAYLPAVYSVCSRLTTLNLSYATVQSYDLVKLLCQCPKLQRLWVLDYIEDAGLEVLASTCKDLRELRVFPSEPFVMEPNVALTEQGLVSVSMGCPKLESVLYFCRQMTNAALITIARNRPNMTRFRLCIIEPKAPDYLTLEPLDIGFGAIVEHCKDLRRLSLSGLLTDKVFEYIGTYAKKMEMLSVAFAGDSDLGMHHVLSGCDSLRKLEIRDCPFGDKALLANASKLETMRSLWMSSCSVSFGACKLLGQKMPKLNVEVIDERGAPDSRPESCPVERVFIYRTVAGPRFDMPGFVWNMDQDSTMRFSRQIITTNGL
chain 2: MDEFVNLKETELRLGLPGTDNVCEAKERVSCCNNNNKRVLSTDTEKEIESSSRKTETSPPRKAQIVGWPPVRSYRKNNIQSKKNESEHEGQGIYVKVSMDGAPYLRKIDLSCYKGYSELLKALEVMFKFSVGEYFERDGYKGSDFVPTYEDKDGDWMLIGDVPWEMFICTCKRLRIMKGSEAKGLGCGV

Variants of: B1
Experiment: pull-down (semi in vitro, GST-IAA3 with Nicotiana cell extracts, anti-HA blot)
Conditions: 10 µM 2,4-D

Question: Which ratio to parent does the source give for chain 1 MQKRIALSFPEEVLEHVFSFIQLDKDRNSVSLVCKSWYEIERWCRRKVFIGNCYAVSPATVIRRFPKVRSVELKGKPHFADFNLVPDGWGGYVYPWIEAMSSSYTWLEEIRLKRMVVTDDCLELIAKSFKNFKVLVLSSAEGFSTDGLAAIAATCRNLKELDLRESDVDDVSGHWLSHFPDTYTSLVSLNISCLASEVSFSALERLVTRCPNLKSLKLNRAVPLEKLATLLQRAPQLEELGTGGYTAEVRPDVYSGLSVALSGCKELRCLSGFWDAVPAYLPAVYSVCSRLTTLNLSYATVQSYDLVKLLCQCPKLQRLWVLDYIEDAGLEVLASTCKDLRELRVFPSEPFVMEPNVALTEQGLVSVSMGCPKLESVLYFCRQMTNAALITIARNRPNMTRFRLCIIEPKAPDYLTLEPLDIGFGAIVEHCKDLRRLSLSGLLTDKVFEYIGTYAKKMEMLSVAFAGDSDLGMHHVLSGCDSLRKLEIRDCPFGDKALLANASKLETMRSLWMSSCSVSFGACKLLGQKMPKLNVEVIDERGAPDSRPESCPVERVFIYRTVAGPRFDMPGFVWNMDQDSTMRFSRQIITTNGL [chain 1 C140A] here?
Answer: 0.62

Question: chain 1 MQKRIALSFPEEVLEHVFSFIQLDKDRNSVSLVCKSWYEIERWCRRKVFIGNCYAVSPATVIRRFPKVRSVELKGKPHFADFNLVPDGWGGYVYPWIEAMSSSYTWLEEIRLKRMVVTDDCLELIAKSFKNFKVLVLSSCEGASTDGLAAIAATCRNLKELDLRESDVDDVSGHWLSHFPDTYTSLVSLNISCLASEVSFSALERLVTRCPNLKSLKLNRAVPLEKLATLLQRAPQLEELGTGGYTAEVRPDVYSGLSVALSGCKELRCLSGFWDAVPAYLPAVYSVCSRLTTLNLSYATVQSYDLVKLLCQCPKLQRLWVLDYIEDAGLEVLASTCKDLRELRVFPSEPFVMEPNVALTEQGLVSVSMGCPKLESVLYFCRQMTNAALITIARNRPNMTRFRLCIIEPKAPDYLTLEPLDIGFGAIVEHCKDLRRLSLSGLLTDKVFEYIGTYAKKMEMLSVAFAGDSDLGMHHVLSGCDSLRKLEIRDCPFGDKALLANASKLETMRSLWMSSCSVSFGACKLLGQKMPKLNVEVIDERGAPDSRPESCPVERVFIYRTVAGPRFDMPGFVWNMDQDSTMRFSRQIITTNGL [chain 1 F143A] was tested. Which ratio to parent did it give?
Answer: 0.5

Question: Which ratio to parent does the source give for chain 1 MQKRIALSFPEEVLEHVFSFIQLDKDRNSVSLVCKSWYEIERWCRRKVFIGNCYAVSPATVIRRFPKVRSVELKGKPHFADFNLVPDGWGGYVYPWIEAMSSSYTWLEEIRLKRMVVTDDCLELIAKSFKNFKVLVLSSCEAFSTDGLAAIAATCRNLKELDLRESDVDDVSGHWLSHFPDTYTSLVSLNISCLASEVSFSALERLVTRCPNLKSLKLNRAVPLEKLATLLQRAPQLEELGTGGYTAEVRPDVYSGLSVALSGCKELRCLSGFWDAVPAYLPAVYSVCSRLTTLNLSYATVQSYDLVKLLCQCPKLQRLWVLDYIEDAGLEVLASTCKDLRELRVFPSEPFVMEPNVALTEQGLVSVSMGCPKLESVLYFCRQMTNAALITIARNRPNMTRFRLCIIEPKAPDYLTLEPLDIGFGAIVEHCKDLRRLSLSGLLTDKVFEYIGTYAKKMEMLSVAFAGDSDLGMHHVLSGCDSLRKLEIRDCPFGDKALLANASKLETMRSLWMSSCSVSFGACKLLGQKMPKLNVEVIDERGAPDSRPESCPVERVFIYRTVAGPRFDMPGFVWNMDQDSTMRFSRQIITTNGL [chain 1 G142A] here?
Answer: 0.45

Question: For chain 1 MQKRIALSFPEEVLEHVFSFIQLDKDRNSVSLVCKSWYEIERWCRRKVFIGNCYAVSPATVIRRFPKVRSVELKGKPHFADFNLVPDGWGGYVYPWIEAMSSSYTWLEEIRLKRMVVTDDCLELIAKSFKNFKVLVLSSCEGFSTDGLAAAAATCRNLKELDLRESDVDDVSGHWLSHFPDTYTSLVSLNISCLASEVSFSALERLVTRCPNLKSLKLNRAVPLEKLATLLQRAPQLEELGTGGYTAEVRPDVYSGLSVALSGCKELRCLSGFWDAVPAYLPAVYSVCSRLTTLNLSYATVQSYDLVKLLCQCPKLQRLWVLDYIEDAGLEVLASTCKDLRELRVFPSEPFVMEPNVALTEQGLVSVSMGCPKLESVLYFCRQMTNAALITIARNRPNMTRFRLCIIEPKAPDYLTLEPLDIGFGAIVEHCKDLRRLSLSGLLTDKVFEYIGTYAKKMEMLSVAFAGDSDLGMHHVLSGCDSLRKLEIRDCPFGDKALLANASKLETMRSLWMSSCSVSFGACKLLGQKMPKLNVEVIDERGAPDSRPESCPVERVFIYRTVAGPRFDMPGFVWNMDQDSTMRFSRQIITTNGL [chain 1 I151A], which ratio to parent is on record?
Answer: 0.46

Question: For chain 1 MQKRIALSFPEEVLEHVFSFIQLDKDRNSVSLVCKSWYEIERWCRRKVFIGNCYAVSPATVIRRFPKVRSVELKGKPHFADFNLVPDGWGGYVYPWIEAMSSSYTWLEEIRLKRMVATDDCLELIAKSFKNFKVLVLSSCEGFSTDGLAAIAATCRNLKELDLRESDVDDVSGHWLSHFPDTYTSLVSLNISCLASEVSFSALERLVTRCPNLKSLKLNRAVPLEKLATLLQRAPQLEELGTGGYTAEVRPDVYSGLSVALSGCKELRCLSGFWDAVPAYLPAVYSVCSRLTTLNLSYATVQSYDLVKLLCQCPKLQRLWVLDYIEDAGLEVLASTCKDLRELRVFPSEPFVMEPNVALTEQGLVSVSMGCPKLESVLYFCRQMTNAALITIARNRPNMTRFRLCIIEPKAPDYLTLEPLDIGFGAIVEHCKDLRRLSLSGLLTDKVFEYIGTYAKKMEMLSVAFAGDSDLGMHHVLSGCDSLRKLEIRDCPFGDKALLANASKLETMRSLWMSSCSVSFGACKLLGQKMPKLNVEVIDERGAPDSRPESCPVERVFIYRTVAGPRFDMPGFVWNMDQDSTMRFSRQIITTNGL [chain 1 V117A], which ratio to parent is on record?
Answer: 0.44

— article PMC5019376
